Data published in US20120309692.
Where “and” joins values, the source holds several entries; their conditions need not be identical. Equal values may be shown once.

What was measured:
[1] = tested on: GGKAR-dR-L (SEQ ID NO: 122)
[2] = tested on: Tos-Gly-Pro-Lys-AMC (SEQ ID NO: 59)
[3] = tested on: GGKA-dR-RL (SEQ ID NO: 119)
[4] = tested on: Z-Ala-Arg-Arg-AMC (SEQ ID NO: 62)
[5] = tested on: GHEQKRR-dL (SEQ ID NO: 110)
[6] = tested on: GGKA-dR-dR-L (SEQ ID NO: 123)
[7] = tested on: Boc-Gln-Gly-Arg-AMC (SEQ ID NO: 54)
[8] = tested on: Z-Val-Val-Arg-AMC (SEQ ID NO: 61)
[9] = tested on: H-Pro-Phe-Arg-AMC (SEQ ID NO: 55)
[10] = tested on: Tos-Gly-Pro-Arg-AMC (SEQ ID NO: 58)
[11] = molecular target: protein C inhibitor (PCI) (UniProt P05154)
Sequence of protein C inhibitor (PCI) (P05154 20-406): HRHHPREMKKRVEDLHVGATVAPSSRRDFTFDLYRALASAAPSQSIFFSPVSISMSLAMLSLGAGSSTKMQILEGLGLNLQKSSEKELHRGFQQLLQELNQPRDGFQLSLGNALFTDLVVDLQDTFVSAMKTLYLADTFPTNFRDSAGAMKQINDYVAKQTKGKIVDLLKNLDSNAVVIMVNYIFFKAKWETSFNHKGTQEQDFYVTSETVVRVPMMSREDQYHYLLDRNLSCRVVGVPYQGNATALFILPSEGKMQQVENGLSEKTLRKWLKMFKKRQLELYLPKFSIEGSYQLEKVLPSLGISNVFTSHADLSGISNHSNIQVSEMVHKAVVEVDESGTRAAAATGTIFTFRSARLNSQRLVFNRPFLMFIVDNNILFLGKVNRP

[12] = tested on: boc-Val-Pro-Arg-AMC (SEQ ID NO: 56)
[13] = tested on: GHEQKRRE (SEQ ID NO: 113)
Semenogelin II = Semenogelin II (UniProt Q02383)
Sequence of Semenogelin II (Q02383 24-582): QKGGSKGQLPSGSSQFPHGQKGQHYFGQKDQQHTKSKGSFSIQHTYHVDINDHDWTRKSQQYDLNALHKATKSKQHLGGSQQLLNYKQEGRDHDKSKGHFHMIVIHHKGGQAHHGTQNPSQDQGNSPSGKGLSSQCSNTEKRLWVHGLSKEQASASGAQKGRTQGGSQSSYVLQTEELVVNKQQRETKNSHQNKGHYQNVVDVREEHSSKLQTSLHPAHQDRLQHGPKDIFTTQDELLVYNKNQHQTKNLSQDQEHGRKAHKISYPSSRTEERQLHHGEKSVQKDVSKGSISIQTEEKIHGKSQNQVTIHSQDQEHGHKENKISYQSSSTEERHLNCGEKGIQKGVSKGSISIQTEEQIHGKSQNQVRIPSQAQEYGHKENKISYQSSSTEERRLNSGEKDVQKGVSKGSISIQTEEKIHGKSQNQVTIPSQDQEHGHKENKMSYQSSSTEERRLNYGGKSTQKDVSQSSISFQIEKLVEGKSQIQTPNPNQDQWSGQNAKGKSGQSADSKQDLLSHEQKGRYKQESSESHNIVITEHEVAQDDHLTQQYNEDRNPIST

[14] = tested on: H-Arg-Gln-Arg-Arg-AMC (SEQ ID NO: 63)
[15] = tested on: GAEQKRRL (SEQ ID NO: 103)
[16] = tested on: Z-Leu-Leu-Arg-AMC (SEQ ID NO: 60)
[17] = tested on: Boc-Phe-Ser-Arg-AMC (SEQ ID NO: 53)
[18] = tested on: GHEQARRL (SEQ ID NO: 108)
[19] = tested on: H-D-Val-Leu-Lys-AMC (SEQ ID NO: 57)
Semenogelin I = Semenogelin I (UniProt P04279)
Sequence of Semenogelin I (P04279 24-462): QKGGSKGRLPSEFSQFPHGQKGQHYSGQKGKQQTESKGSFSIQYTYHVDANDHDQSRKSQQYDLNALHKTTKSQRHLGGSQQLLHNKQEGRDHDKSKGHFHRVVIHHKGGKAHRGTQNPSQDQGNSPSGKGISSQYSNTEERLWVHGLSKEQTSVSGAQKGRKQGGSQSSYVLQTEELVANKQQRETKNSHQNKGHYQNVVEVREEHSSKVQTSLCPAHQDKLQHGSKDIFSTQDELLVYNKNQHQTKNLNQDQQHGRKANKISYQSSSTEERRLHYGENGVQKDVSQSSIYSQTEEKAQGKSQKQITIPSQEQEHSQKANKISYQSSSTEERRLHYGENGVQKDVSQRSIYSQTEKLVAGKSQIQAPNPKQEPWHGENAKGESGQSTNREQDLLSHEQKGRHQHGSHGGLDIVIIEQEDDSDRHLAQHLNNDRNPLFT

“recombinant human glandular kallikrein 2 (hK2)” showed a hK2 Hydrolysis Rate (GHEQKGRL (SEQ ID NO: 76)) of 651 FU/hr/m, a hK2 Hydrolysis Rate (GGGKAHRL (SEQ ID NO: 68)) of 4100 FU/hr/m and a hK2 Hydrolysis Rate (GGKARNL (SEQ ID NO: 118)) of 828 FU/hr/m. For the same substance, the hK2 Hydrolysis Rate [1] was 49.6 FU/hr/m, the hK2 Hydrolysis Rate (GHEQKRRL (SEQ ID NO: 66)) was 5970 FU/hr/m and 3370 FU/hr/m and the hK2 Hydrolysis Rate (GHEAKRRL (SEQ ID NO: 95)) was 3320 FU/hr/m. For the same substance, the “substrate hydrolysis by hK2” value [2] was “NR”, the hK2 Hydrolysis Rate (GSYPSSRL (SEQ ID NO: 75)) was 1460 FU/hr/m and the hK2 Hydrolysis Rate (GGKAQRL (SEQ ID NO: 104)) was 2230 FU/hr/m. The hK2 Hydrolysis Rate [3] was 494 FU/hr/m, the hK2 Hydrolysis Rate (GSKGHRRL (SEQ ID NO: 71)) was 2650 FU/hr/m and the hK2 Hydrolysis Rate (GHEQKRRA (SEQ ID NO: 97)) was 3050 FU/hr/m. For the same substance, the hK2 Hydrolysis Rate (GGKSRRL (SEQ ID NO: 94)) was 3440 FU/hr/m, the hK2 Hydrolysis Rate (GGKAFRL (SEQ ID NO: 102)) was 2370 FU/hr/m and the hK2 Hydrolysis Rate (GGGKARRL (SEQ ID NO: 67)) was 4780 FU/hr/m. For the same substance, the Activity (%) with 100 µM substrate, relative to H-Pro-Phe-Arg-AMC [4] was 33%, the Kcat [4] was 0.12 s⁻¹ and the Kcat/km [4] was 6000 M⁻¹ s⁻¹. It also gave a Km [4] of 20 µM, a hK2 Hydrolysis Rate [5] of 1690 FU/hr/m and a hK2 Hydrolysis Rate [6] of 16.5 FU/hr/m. The hK2 Hydrolysis Rate (GPAHQDRL (SEQ ID NO: 88)) was 75.3 FU/hr/m, the “substrate hydrolysis by hK2” value [7] was “NR” and the hK2 Hydrolysis Rate (GSNTEKRL (SEQ ID NO: 80)) was 256 FU/hr/m. For the same substance, the “substrate hydrolysis by hK2” value [8] was “NR”, the hK2 Hydrolysis Rate (GGKAKKL (SEQ ID NO: 120)) was 77.9 FU/hr/m and the hK2 Hydrolysis Rate (GSQNQVRL (SEQ ID NO: 82)) was 194 FU/hr/m. The hK2 Hydrolysis Rate (GHAQKRRL (SEQ ID NO: 93)) was 3670 FU/hr/m, the hK2 Hydrolysis Rate (GSQNQRRL (SEQ ID NO: 73)) was 2100 FU/hr/m and the hK2 Hydrolysis Rate (GSKGHFHL (SEQ ID NO: 81)) was 171 FU/hr/m. The hK2 Hydrolysis Rate (GGKARHL (SEQ ID NO: 117)) was 939 FU/hr/m, the hK2 Hydrolysis Rate (GPAHQRRL (SEQ ID NO: 69)) was 4020 FU/hr/m and the hK2 Hydrolysis Rate (GSNTERRL (SEQ ID NO: 77)) was 592 FU/hr/m. For the same substance, the hK2 Hydrolysis Rate (GGKARRL (SEQ ID NO: 105)) was 2170 FU/hr/m, the Activity (%) with 100 µM substrate, relative to H-Pro-Phe-Arg-AMC [9] was 100% and the Kcat [9] was 0.917 s⁻¹. The Kcat/km [9] was 22900 M⁻¹ s⁻¹, the Km [9] was 40 µM and the “rate of cleavage of 100 µM substrate by 1.6 pmol hK2” value [9] was 1.6 pmol of the hK2 preparation cleaved 50 pmol/min of the 100 µM substrate Pro-Phe-Arg-AMC. The hK2 Hydrolysis Rate (GGKAHRL (SEQ ID NO: 114)) was 1290 FU/hr/m, the hK2 Hydrolysis Rate (GGGKAHHL (SEQ ID NO: 86)) was 70.2 FU/hr/m and the hK2 Hydrolysis Rate (GGKARQL (SEQ ID NO: 116)) was 1020 FU/hr/m. For the same substance, the “substrate hydrolysis by hK2” value [10] was “NR”, the hK2 Hydrolysis Rate (GSYEERRL (SEQ ID NO: 78)) was 325 FU/hr/m and the “progress curves of Pro-Phe-Arg-AMC hydrolysis by 8 nM hK2 with 80, 40 or 16 nM PCI” value [11] was “The inhibitor of hK2 by PCI could be described by the slow-binding inhibition mechanism presented in Scheme 2”. It also gave a hK2 Hydrolysis Rate (GPAHQDHL (SEQ ID NO: 90)) of 48.1 FU/hr/m, a hK2 Hydrolysis Rate (GGAKRRL (SEQ ID NO: 98)) of 2770 FU/hr/m and a hK2 Hydrolysis Rate (GHEQKGHL (SEQ ID NO: 89)) of 1.3 FU/hr/m. It also gave a hK2 Hydrolysis Rate (GSYPSSHL (SEQ ID NO: 91)) of 24.7 FU/hr/m, an Activity (%) with 100 µM substrate, relative to H-Pro-Phe-Arg-AMC [12] of 6% and a Kcat [12] of 0.0267 s⁻¹. It also gave a Kcat/km [12] of 567 M⁻¹ s⁻¹, a Km [12] of 48 µM and a hK2 Hydrolysis Rate [13] of 1470 FU/hr/m. The “cleavage by hK2 (HPLC of fragments)” value (Semenogelin II) was “Cleavage of either Sg I or Sg II with hK2 results in generation of a multitude of peptides”, the hK2 Hydrolysis Rate (GSYPSRRL (SEQ ID NO: 74)) was 2060 FU/hr/m and the hK2 Hydrolysis Rate (GKDVSRRL (SEQ ID NO: 72)) was 2320 FU/hr/m. For the same substance, the hK2 Hydrolysis Rate (GGKQRRL (SEQ ID NO: 106)) was 2170 FU/hr/m, the hK2 Hydrolysis Rate (GSNTEKHL (SEQ ID NO: 87)) was 80.5 FU/hr/m and the hK2 Hydrolysis Rate (GPLILSRL (SEQ ID NO: 83)) was 118 FU/hr/m. For the same substance, the hK2 Hydrolysis Rate (GGKARKL (SEQ ID NO: 112)) was 1600 FU/hr/m, the hK2 Hydrolysis Rate (GHEQKRRS (SEQ ID NO: 99)) was 2640 FU/hr/m and the hK2 Hydrolysis Rate (GGKARRS (SEQ ID NO: 111)) was 1610 FU/hr/m. For the same substance, the hK2 Hydrolysis Rate (GSYEERHL (SEQ ID NO: 84)) was 42.9 FU/hr/m, the “substrate hydrolysis by hK2” value [14] was “NR” and the hK2 Hydrolysis Rate [15] was 2330 FU/hr/m. It also gave an Activity (%) with 100 µM substrate, relative to H-Pro-Phe-Arg-AMC [16] of 7%, a Kcat [16] of 0.04 s⁻¹ and a Kcat/km [16] of 567 M⁻¹ s⁻¹. It also gave a Km [16] of 71 µM, a hK2 Hydrolysis Rate (GSQNQVHL (SEQ ID NO: 92)) of 32.5 FU/hr/m and a hK2 Hydrolysis Rate (GGKANRL (SEQ ID NO: 115)) of 1110 FU/hr/m. The hK2 Hydrolysis Rate (GGQKRRL (SEQ ID NO: 96)) was 3270 FU/hr/m, the “substrate hydrolysis by hK2” value [17] was “NR” and the hK2 Hydrolysis Rate (GSKGHFRL (SEQ ID NO: 70)) was 3030 FU/hr/m. The hK2 Hydrolysis Rate (GGKAKRL (SEQ ID NO: 109)) was 1790 FU/hr/m, the hK2 Hydrolysis Rate (GGKHRRL (SEQ ID NO: 107)) was 2080 FU/hr/m and the hK2 Hydrolysis Rate (GGKAHKL (SEQ ID NO: 121)) was 73.2 FU/hr/m. For the same substance, the hK2 Hydrolysis Rate (GKDVSGRL (SEQ ID NO: 79)) was 243 FU/hr/m, the hK2 Hydrolysis Rate (GGKKRRL (SEQ ID NO: 100)) was 2580 FU/hr/m and the hK2 Hydrolysis Rate [18] was 1960 FU/hr/m. For the same substance, the “substrate hydrolysis by hK2” value [19] was “NR”, the “cleavage by hK2 (HPLC of fragments)” value (Semenogelin I) was “Cleavage of either Sg I or Sg II with hK2 results in generation of a multitude of peptides” and the hK2 Hydrolysis Rate (GKDVSGHL (SEQ ID NO: 85)) was 67.5 FU/hr/m. It also gave a hK2 Hydrolysis Rate (GGHKRRL (SEQ ID NO: 101)) of 2430 FU/hr/m.
